Measured values taken from patent publication US20250345445A1, “ANTIBODY-DRUG CONJUGATE AND USE THEREOF” (CSPC MEGALITH BIOPHARMACEUTICAL CO., LTD., priority 2021, published 2025).
Like-named read-outs stand apart in the source and are kept apart here. Marks after values point to notes of the source that are not given here. *1 amine or outer side, *2 acyl side, *3 side chain or, on linkers, in order; H or OH if unused. Where a SMILES comes first, the peptide text is derived from it. [ ]: non-standard residue; d: D form. The star is where a group is joined. Exatecan = CC[C@@]1(O)C(=O)OCc2c1cc1n(c2=O)Cc2c-1nc1cc(F)c(C)c3c1c2[C@@H](N*)CC3; Hexanoyl(6-maleimido) = O=C1C=CC(=O)N1CCCCCC(=O)*; X1 = C[C@@H](OCN[*:1])C(=O)[*:2]; X2 = O=C(COCCOCN[*:1])[*:2]

Assays:
[1] = Phase Ib, cited from earlier work
[2] = Assay 8: stability of linker-drug compounds; type: physicochemical; details: high temperature, high humidity, illumination or 0.5% BSA-PBS; LC-MS/MS; Deruxtecan also studied
Method: Different linker-drug compounds such as Deruxtecan, JSSW-001, and ZW-002 were studied under high temperature (40° C., 60° C.), high humidity (25° C./75% RH and 25° C./92.5% RH), illumination (illuminance 4500 Lux, near-UV energy […]), or 0.5% BSA-PBS conditions. Samples were collected at different times after exposure to these conditions, and the concentration changes of the linker-drug compounds in the samples were detected using the LC-MS/MS method.

[3] = tested on: human colorectal cancer DiFi xenograft tumour; test: Assay 16: efficacy of patritumab-ADC on DiFi xenograft tumour; type: in vivo, NU/NU mice; details: Table 29: 10 mg/kg i.v./qw*3w
Description: The assay was terminated on day 28 after the administration.

[4] = tested on: human colon cancer SW620 xenograft tumour; test: Assay 15: efficacy of patritumab-ADC on SW620 xenograft tumour; type: in vivo, NU/NU mice; details: 7 mg/kg i.v./single administration
Description: The assay was terminated on day 26 after the administration. The inhibition effects of patritumab-DXD ADC (DAR=7.3) and patritumab-JSSW-001 ADC (DAR=7.36) on human colon cancer SW620 xenograft tumour in nude mice were compared.

[5] = tested on: human lung adenocarcinoma PC9-GR (gefitinib-resistant cell) xenograft tumour; test: Assay 3: efficacy of patritumab-ADC on PC9-GR xenograft tumour; type: in vivo, NU/NU mice; details: 3 mg/kg i.v./qw*4 w
[6] = more active than the common chemotherapy drug irinotecan; cited from earlier work
[7] = biological target: T1, EGFR on MDA-MB-468 cells (human, UniProt P00533 25-1210); test: flow cytometry on MDA-MB-468 cells, antibody diluted in PBS pH 7.4, FITC anti-human Fc
T1 construct: whole, on cells; also called epidermal growth factor receptor; HER1

[8] = biological target: T1, EGFR on MDA-MB-468 cells; test: flow cytometry on MDA-MB-468 cells, pH 7.4; ratio of EC50 to SWY2110
[9] = biological target: T1, EGFR on MDA-MB-468 cells; test: flow cytometry on MDA-MB-468 cells, pH 6.0; ratio of EC50 to SWY2110
[10] = biological target: T1, EGFR on MDA-MB-468 cells; test: flow cytometry on MDA-MB-468 cells, antibody diluted in PBS pH 6.0, FITC anti-human Fc
[11] = early data published by the company; cited from earlier work

Molecule: MRG003
- objective response rate (ORR) ([1]; patients with nasopharyngeal carcinoma (4/9)): 44%
- objective response rate (ORR) ([1]; patients with non-small cell lung cancer (4/10)): 40%

Molecule: CC[C@@]1(O)C(=O)OCc2c1cc1n(c2=O)Cc2c-1nc1cc(F)c(C)c3c1c2[C@@H](NC(=O)[C@@H](C)OCNC(=O)CNC(=O)[C@H](Cc1ccccc1)NC(=O)CNC(=O)CNC(=O)CCCCCN1C(=O)C=CC1=O)CC3 [JSSW-001, N-((2R,10S)-10-benzyl-1-(((1S,9S)-9-ethyl-5-fluoro-9-hydroxy-4-methyl-10,13-dioxo-2,3,9,10,13,15-hexahydro-1H,12H-benzo[de]pyrano[3′,4′:6,7]indolizino[1,2-b]quinolin-1-yl)amino)-2-methyl-1,6,9,12,15-pentaoxo-3-oxa-5,8,11,14-tetraazahexadecan-16-yl)-6-(2,5-dioxo-2,5-dihydro-1H-pyrrol-1-yl)hexanamide] ({Hexanoyl(6-maleimido)}-GGFG[X1]-Exatecan)
- stability of linker-drug compound [2]: better stability

Molecule: patritumab-DXD ADC (DAR = 7.3): patritumab antibody conjugated with commercially available Deruxtecan [reference compound]
- Tumour Volume ([3]; 28 days after administration): 512.5 ± 470.8* mm^3
- TGI(%) Day 28 [3]: 54.0%
- TGI(%) Day 21 [4]: 73.2%
- Tumour Volume ([4]; 21 days after administration): 461.3 ± 278.1*** mm^3
- TGI(%) Day 28 [5]: 59.5%
- Tumour Volume ([5]; 28 days after administration): 373.4 ± 102.8** mm^3

Molecule: CC[C@@]1(O)C(=O)OCc2c1cc1n(c2=O)Cc2c-1nc1cc(F)c(C)c3c1c2[C@@H](NC(=O)COCCOCNC(=O)CNC(=O)[C@H](Cc1ccccc1)NC(=O)CNC(=O)CNC(=O)CCCCCN1C(=O)C=CC1=O)CC3 [ZW-002, N—((S)-13-benzyl-1-(((1S,9S)-9-ethyl-5-fluoro-9-hydroxy-4-methyl-10,13-dioxo-2,3,9,10,13,15-hexahydro-1H,12H-benzo[de]pyrano[3′,4′:6,7]indolizino[1,2-b]quinolin-1-yl)amino)-1,9,12,15,18-pentaoxo-3,6-dioxa-8,11,14,17-tetraazanonadecan-19-yl)-6-(2,5-dioxo-2,5-dihydro-1H-pyrrol-1-yl)hexanamide] ({Hexanoyl(6-maleimido)}-GGFG[X2]-Exatecan)
- stability of linker-drug compound [2]: better stability

Molecule: CC[C@@]1(O)C(=O)OCc2c1cc1n(c2=O)Cc2c-1nc1cc(F)c(C)c3c1c2[C@@H](NC(=O)CO)CC3 [DXd]
- activity relative to irinotecan [6]: 10 times

B1: EGFR antibody SWY2111 (antibody, human IgG1, kappa, V domains shown)
VH: QVQLQESGPGLVKPSETLSLTCTVSGFSLSDYDVHWVRQAPGKGLEWLGVIWSGGNTDYNTPFTSRLTISVDTSKNQFSLKLSSVTAADTAVYYCARALDDYDYEFAYWGQGTLVTVSS
VL: EIVLTQSPDFQSVTPKEKVTITCRASQSIGTNIHWYQQKPDQSPKLLIKYASESISGIPSRFSGSGSGTDFTLTINSLEAEDAATYYCQQNNEWPTSFGQGTKLEIKR
- EC50 [7]: 1.45 nM
- fold decrease of affinity compared to SWY2110 [8]: 3 times
- fold change of affinity compared to SWY2110 [9]: 1.2 to 1.3 times
- EC50 [10]: 0.6 nM

B2: EGFR antibody SWY2112 (antibody, human IgG1, kappa, V domains shown)
VH: QVQLQESGPGLVKPSETLSLTCTVSGFSLSEYDVHWVRQAPGKGLEWLGVIWSGGNTDYNTPFTSRLTISVDTSKNQFSLKLSSVTAADTAVYYCARALDDYDYEFAYWGQGTLVTVSS
VL: EIVLTQSPDFQSVTPKEKVTITCRASQSIGTNIHWYQQKPDQSPKLLIKYASESISGIPSRFSGSGSGTDFTLTINSLEAEDAATYYCQQNNEWPTSFGQGTKLEIKR
- EC50 [7]: 2.35 nM
- fold change of affinity compared to SWY2110 [9]: 1.2 to 1.3 times
- EC50 [10]: 0.67 nM

B3: EGFR antibody SWY2113 (antibody, human IgG1, kappa, V domains shown)
VH: QVQLQESGPGLVKPSETLSLTCTVSGFSLSHYDVHWVRQAPGKGLEWLGVIWSGGNTDYNTPFTSRLTISVDTSKNQFSLKLSSVTAADTAVYYCARALDDYDYEFAYWGQGTLVTVSS
VL: EIVLTQSPDFQSVTPKEKVTITCRASQSIGTNIHWYQQKPDQSPKLLIKYASESISGIPSRFSGSGSGTDFTLTINSLEAEDAATYYCQQNNEWPTSFGQGTKLEIKR
- EC50 [7]: 4.76 nM
- fold decrease of affinity compared to SWY2110 [8]: 3 to 9.7 times
- fold decrease of affinity compared to SWY2110 [9]: 6.6 times
- EC50 [10]: 3.39 nM

B4: BA3011 (conjugate, chains of the INN, looked up)
VH: EVQLVQSGAEVKKPGATVKISCKVSGYSFWGATMNWIRQPPGKGLEWIGLIKPSNGGTSYNQKFKGRVTISADKSISTAYLQWSSLKASDTAMYYCAHGHYESYEAMDYWGQGTLVTVSS
VL: DIQMTQSPSSLSASVGDRVTITCKASQDVVSAVAWYQQKPGQAPRLLIYWQDTRHTGVPSRFSGSGSGTEFTLTISSLQPDDFATYYCQEHFSPPLTFGQGTKVEIK
modifications: vedotin (MMAE) payload
- target-related toxicity [11]: no obvious target-related toxicity

B5: BA3021 (conjugate, chains of the INN, looked up)
VH: EVQLVQSGAEVKKPGESLRISCKGSGYTFTEYTMHWVRQAPGQGLEWMGGINTNNGGTGYNQKFKGRVTISADKSISTAYLQWSSLKASDTAMYYCAHGSLYSYGNSYFDYWGQGTLVTVSS
VL: AIQLTQSPSSLSASVGDRVTITCSATSSVSYMHWYLQKPGQSPQLLIYGTSNLASGVPDRFSGSGSGTDFTLKISRVEAEDVGVYYCQQRSSYPFTFGQGTKVEIK
modifications: vedotin (MMAE) payload
- target-related toxicity [11]: no obvious target-related toxicity
